What is called Kd is the concentration at which binding is half-saturated. Read a high Kd as a looser complex.

Here are results for 37 molecules from paper PMC10786891, “Massively parallel profiling of RNA-targeting CRISPR-Cas13d”.

Positions count from the first letter of the chain named. In names and notes the source's numbering stands.

Sequences and labels used below:
T1: EsCas13d, nuclease-dead (Eubacterium siraeum, UniProt B0MS50, R295A;H300A;R849A;H854A)
T1 sequence: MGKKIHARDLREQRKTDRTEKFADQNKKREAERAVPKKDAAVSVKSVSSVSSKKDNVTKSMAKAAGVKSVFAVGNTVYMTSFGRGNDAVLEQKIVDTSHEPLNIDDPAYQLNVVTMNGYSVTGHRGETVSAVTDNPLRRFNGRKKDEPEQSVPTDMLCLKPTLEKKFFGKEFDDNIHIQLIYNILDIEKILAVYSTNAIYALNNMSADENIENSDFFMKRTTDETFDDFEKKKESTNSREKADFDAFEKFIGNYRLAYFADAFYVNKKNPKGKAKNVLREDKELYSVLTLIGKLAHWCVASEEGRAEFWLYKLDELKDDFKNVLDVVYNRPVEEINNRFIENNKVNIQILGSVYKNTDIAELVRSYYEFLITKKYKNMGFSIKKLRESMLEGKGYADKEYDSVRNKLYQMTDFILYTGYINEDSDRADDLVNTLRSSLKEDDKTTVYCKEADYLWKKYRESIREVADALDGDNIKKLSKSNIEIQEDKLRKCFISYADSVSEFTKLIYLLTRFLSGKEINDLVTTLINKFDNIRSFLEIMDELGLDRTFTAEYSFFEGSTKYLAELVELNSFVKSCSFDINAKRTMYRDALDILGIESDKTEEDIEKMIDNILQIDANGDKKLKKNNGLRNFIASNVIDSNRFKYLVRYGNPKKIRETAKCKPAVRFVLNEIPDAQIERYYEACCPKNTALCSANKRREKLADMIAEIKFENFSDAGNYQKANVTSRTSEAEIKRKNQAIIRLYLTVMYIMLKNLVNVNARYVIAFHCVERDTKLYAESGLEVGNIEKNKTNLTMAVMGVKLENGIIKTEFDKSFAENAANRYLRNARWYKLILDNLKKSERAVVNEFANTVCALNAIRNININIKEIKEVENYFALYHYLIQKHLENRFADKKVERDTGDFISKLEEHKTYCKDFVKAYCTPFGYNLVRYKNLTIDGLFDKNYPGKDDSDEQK

B1: target 1 MT 5'PFS UAG 3'PFS UCG (mixed)
RNA 1: CACCCGUGCAAAAAUGCAGGGGUCUAAAACUGAGCGGAUAACCUCUCUAUGG
RNA 2: GGGAAUGGAUCCACAUCUACGAAUUCUAGCCAUAGAGAGGUUAUCCGCUCAUCGAGAUCGGAAGAGCACACGU
B2: target 1 MT 5'PFS GUG 3'PFS GCG (mixed)
RNA 1: B1 RNA 1
RNA 2: B1 RNA 2 with U27G, A28U, U52G
B3: target 1 MT 5'PFS UUA 3'PFS UAU (mixed)
RNA 1: B1 RNA 1
RNA 2: B1 RNA 2 with A28U, G29A, C53A, G54U
B4: target 1 MT 5'PFS GUG 3'PFS GCC (mixed)
RNA 1: B1 RNA 1
RNA 2: B1 RNA 2 with U27G, A28U, U52G, G54C
B5: target 1 MT 5'PFS ACA 3'PFS UAC (mixed)
RNA 1: B1 RNA 1
RNA 2: B1 RNA 2 with U27A, A28C, G29A, C53A, G54C
B6: target 1 MT 5'PFS GUU 3'PFS CUC (mixed)
RNA 1: B1 RNA 1
RNA 2: B1 RNA 2 with U27G, A28U, G29U, U52C, C53U, G54C
B7: target 1 MT 5'PFS AGA 3'PFS ACA (mixed)
RNA 1: B1 RNA 1
RNA 2: B1 RNA 2 with U27A, A28G, G29A, U52A, G54A
B8: target 1 MT 5'PFS UGC 3'PFS AAG (mixed)
RNA 1: B1 RNA 1
RNA 2: B1 RNA 2 with A28G, G29C, U52A, C53A
B9: target 1 MT 5'PFS AGA 3'PFS UCA (mixed)
RNA 1: B1 RNA 1
RNA 2: B1 RNA 2 with U27A, A28G, G29A, G54A
B10: target 1 MT 5'PFS AGA 3'PFS UCU (mixed)
RNA 1: B1 RNA 1
RNA 2: B1 RNA 2 with U27A, A28G, G29A, G54U
B11: target 1 MT 5'PFS ACA 3'PFS CGG (mixed)
RNA 1: B1 RNA 1
RNA 2: B1 RNA 2 with U27A, A28C, G29A, U52C, C53G
B12: target 1 MT 5'PFS CCA 3'PFS CUA (mixed)
RNA 1: B1 RNA 1
RNA 2: B1 RNA 2 with U27C, A28C, G29A, U52C, C53U, G54A
B13: target 1 MT 5'PFS CAA 3'PFS ACU (mixed)
RNA 1: B1 RNA 1
RNA 2: B1 RNA 2 with U27C, G29A, U52A, G54U
B14: target 1 MT 5'PFS GUU 3'PFS CUG (mixed)
RNA 1: B1 RNA 1
RNA 2: B1 RNA 2 with U27G, A28U, G29U, U52C, C53U
B15: target 1 MT 5'PFS GGG 3'PFS GCU (mixed)
RNA 1: B1 RNA 1
RNA 2: B1 RNA 2 with U27G, A28G, U52G, G54U
B16: target 1 MT 5'PFS AGA 3'PFS UCG (mixed)
RNA 1: B1 RNA 1
RNA 2: B1 RNA 2 with U27A, A28G, G29A
B17: target 1 MT 5'PFS AGA 3'PFS ACU (mixed)
RNA 1: B1 RNA 1
RNA 2: B1 RNA 2 with U27A, A28G, G29A, U52A, G54U
B18: target 1 C2G,G13C (mixed)
RNA 1: B1 RNA 1
RNA 2: B1 RNA 2 with U27G, A28U, G29A, G39C, C50G, U52C
B19: target 1 MT 5'PFS AGA 3'PFS ACG (mixed)
RNA 1: B1 RNA 1
RNA 2: B1 RNA 2 with U27A, A28G, G29A, U52A
B20: target 1 MT 5'PFS UCG 3'PFS CGA (mixed)
RNA 1: B1 RNA 1
RNA 2: B1 RNA 2 with A28C, U52C, C53G, G54A
B21: target 1 MT 5'PFS ACG 3'PFS CAC (mixed)
RNA 1: B1 RNA 1
RNA 2: B1 RNA 2 with U27A, A28C, U52C, C53A, G54C
B22: target 1 insA 3' of 19,insG 3' of 6 (mixed)
RNA 1: B1 RNA 1
RNA 2: GGGAAUGGAUCCACAUCUACGAAUUCGUACCAUAAGAGAGGUUAUCCGGCUCACCGAGAUCGGAAGAGCACACGU
B23: target 1 MT 5'PFS GUA 3'PFS CCU (mixed)
RNA 1: B1 RNA 1
RNA 2: B1 RNA 2 with U27G, A28U, G29A, U52C, G54U
B24: target 1 MT 5'PFS CAA 3'PFS ACA (mixed)
RNA 1: B1 RNA 1
RNA 2: B1 RNA 2 with U27C, G29A, U52A, G54A
B25: target 1 MT 5'PFS CAA 3'PFS ACG (mixed)
RNA 1: B1 RNA 1
RNA 2: B1 RNA 2 with U27C, G29A, U52A
B26: target 1 MT 5'PFS AGA 3'PFS ACC (mixed)
RNA 1: B1 RNA 1
RNA 2: B1 RNA 2 with U27A, A28G, G29A, U52A, G54C
B27: target 1 MT 5'PFS GUU 3'PFS CUU (mixed)
RNA 1: B1 RNA 1
RNA 2: B1 RNA 2 with U27G, A28U, G29U, U52C, C53U, G54U
B28: target 1 MT 5'PFS UCG 3'PFS CGU (mixed)
RNA 1: B1 RNA 1
RNA 2: B1 RNA 2 with A28C, U52C, C53G, G54U
B29: target 1 MT 5'PFS UCG 3'PFS AGU (mixed)
RNA 1: B1 RNA 1
RNA 2: B1 RNA 2 with A28C, U52A, C53G, G54U
B30: target 1 MT 5'PFS AGA 3'PFS UCC (mixed)
RNA 1: B1 RNA 1
RNA 2: B1 RNA 2 with U27A, A28G, G29A, G54C
B31: target 1 C6U,C7U (mixed)
RNA 1: B1 RNA 1
RNA 2: B1 RNA 2 with U27G, A28U, G29A, C45U, C46U, U52C
B32: target 1 insA 3' of 17,insC 3' of 9 (mixed)
RNA 1: B1 RNA 1
RNA 2: B22 RNA 2 with A35G, G36A, U45C, C46U, G48C
B33: target 1 MT 5'PFS GUU 3'PFS CUA (mixed)
RNA 1: B1 RNA 1
RNA 2: B1 RNA 2 with U27G, A28U, G29U, U52C, C53U, G54A
B34: target 1 MT 5'PFS UAA 3'PFS UCG (mixed)
RNA 1: B1 RNA 1
RNA 2: B1 RNA 2 with G29A
B35: target 1 MT 5'PFS CAU 3'PFS CUU (mixed)
RNA 1: B1 RNA 1
RNA 2: B1 RNA 2 with U27C, G29U, U52C, C53U, G54U
B36: target 1 MT 5'PFS GGG 3'PFS GCA (mixed)
RNA 1: B1 RNA 1
RNA 2: B1 RNA 2 with U27G, A28G, U52G, G54A
B37: target 1 MT 5'PFS UCG 3'PFS AGA (mixed)
RNA 1: B1 RNA 1
RNA 2: B1 RNA 2 with A28C, U52A, C53G, G54A

This data set concerns the target T1, EsCas13d, nuclease-dead. The data set is described as follows: crRNA (strand 1, pre-loaded); Mg2+; 40 mM Tris-HCl pH 7.5, 150 mM NaCl, 6 mM MgCl2, 1 mM DTT, 0.1% Tween-20, 0.2 mg/ml BSA; 25 C; 10 min per concentration, then washed. Conditions: tags: His6-TwinStrep-SUMO cleaved; N-terminal SNAP kept (SNAP-Surface 488); label: 3' end held by stalled T7 RNA polymerase.
For the molecule B1, the dissociation constant (Kd) was found to be 20.1 ± 3.45 nM.

In turn, B2 displayed a Kd of 14.4 ± 2 nM.

B3: binding was characterised by a dissociation constant (Kd) of 12.7 ± 1.35 nM.

In turn, B4 displayed a Kd of 12.7 ± 1.6 nM.

B5: the Kd is 25.5 ± 11 nM.

Molecule B6 displayed a dissociation constant Kd of 21.5 ± 4 nM.

B7 had a Kd of 56 ± 18 nM.

Molecule B8 registered a dissociation constant (Kd) of 76 ± 33.5 nM.

For the molecule B9, the Kd turned out to be 61 ± 23 nM.

For the molecule B10, the Kd stood at 42 ± 15.5 nM.

As for B11, the equilibrium dissociation constant (Kd) is around 70 nM.

Molecule B12 gave a Kd of 2.5 ± 0.8 nM.

B13 returned a dissociation constant Kd of around 20.5 nM.

B14 registered a dissociation constant (Kd) of 12.8 ± 1.4 nM.

Take B15: the equilibrium dissociation constant (Kd) came to 7.45 ± 1.45 nM.

On to B16, for which the Kd is 47 ± 17.5 nM.

On to B17, for which the Kd was around 32 nM.

Regarding B18, the Kd came out at 47 ± 3.5 nM.

In turn, B19 displayed a Kd of 29.5 ± 7 nM.

B20 showed a Kd of 51 ± 22.5 nM.

For B21, the dissociation constant (Kd) was around 36 nM.

Consider B22, for which the dissociation constant Kd amounted to 25.7 ± 2.3 nM.

Turning to B23, the equilibrium dissociation constant (Kd) turned out to be 7.3 ± 0.8 nM.

On to B24, for which the Kd is around 27 nM.

Molecule B25 had a Kd of 15 ± 5.5 nM.

The molecule B26 had a Kd of 47 ± 16 nM.

For B27, the dissociation constant (Kd) turned out to be 16.4 ± 3.1 nM.

Molecule B28 displayed a dissociation constant (Kd) of around 100 nM.

B29 registered a Kd of 50 ± 24.5 nM.

The molecule B30 had a Kd of 49.5 ± 19 nM.

In turn, B31 registered a dissociation constant (Kd) of 6.3 ± 0.5 nM.

The molecule B32 displayed a Kd of 12.3 ± 0.6 nM.

On to B33, for which binding was put at a Kd of 17.6 ± 3.25 nM.

Regarding B34, the equilibrium dissociation constant (Kd) was found to be 23 ± 6.5 nM.

Molecule B35 registered an equilibrium dissociation constant (Kd) of around 48.5 nM.

In turn, B36 returned an equilibrium dissociation constant (Kd) of 36 ± 13 nM.

For the molecule B37, binding was characterised by a dissociation constant (Kd) of 39 ± 11 nM.
